The values below come from patent US5906819.

Experiment [1] has as its target T1, myosin light chain (chicken) (UniProt P02612).
T1 sequence: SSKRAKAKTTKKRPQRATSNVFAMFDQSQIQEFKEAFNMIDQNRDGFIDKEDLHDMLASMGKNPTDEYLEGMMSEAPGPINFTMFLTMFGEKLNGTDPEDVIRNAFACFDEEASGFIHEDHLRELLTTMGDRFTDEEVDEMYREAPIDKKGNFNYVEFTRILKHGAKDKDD

B1: GST-Rho-kinase (enzyme)
chain: PTGKMPGAPEAVSGDGAGASRQRKLEALIRDPRSPINVESLLDGLNPLVLDLDFPALRKNKNIDNFLNRYEKIVKKIRGLQMKAEDYDVVKVIGRGAFGEVQLVRHKASQKVYAMKLLSKFEMIKRSDSAFFWEERDIMAFANSPWVVQLFCAFQDDKYLYMVMEYMPGGDLVNLMSNYDVPEKWAKFYTAEVVLALDAIHSMGLIHRDVKPDNMLLDKHGHLKLADFGTCMKMDETGMVHCDTAVGTPDYISPEVLKSQGGDGYYGRECDWWSVGVFLFEMLVGDTPFYADSLVGTYSKIMDHKNSLCFPEDAEISKHAKNLICAFLTDREVRLGRNGVEEIKQHPFFKNDQWNWDNIRETAAPVVPELSSDIDSSNFDDIEDDKGDVETFPIPKAFVGNQLPFIGFTYYRENLLLSDSPSCKENDSIQSRKNEESQEIQKKLYTLEEHLSTEIQAKEELEQKCKSVNTRLEKVAKELEEEITLRKNVESTLRQLEREKALLQHKNAEYQRKADHEADKKRNLENDVNSLKDQLEDLKKRNQNSQIS
For B1, in experiment [1], the apparent Km for myosin light chain was found to be 0.91 µM. Further, the phosphorylation of intact myosin (mol phosphorylation per 1 mol myosin) with intact myosin (chicken) stood at 1. Further, in the experiment with S6 peptide, the specific activity with S6 peptide as a substrate (mol per minute per 1 mol GST-Rho-kinase) was 41.
